Laboratory results taken from patent CN113840601A (dated 2021).

How the values were obtained:
[1] = target: T1, 小鼠c-Met (mouse c-Met) (mouse, UniProt P16056 25-1379, limits assumed); assay: not described; stated in the results of the xenograft example as the reason why tolerability could not be assessed
T1 construct: Endogenous mouse protein in the host animals; no construct described

[2] = target: T2, 小鼠EGFR (mouse EGFR) (mouse, UniProt Q01279 25-1210, limits assumed); assay: as above
T2 construct: Endogenous mouse protein in the host animals; no construct described

T1 sequence (P16056 25-1379 limits assumed): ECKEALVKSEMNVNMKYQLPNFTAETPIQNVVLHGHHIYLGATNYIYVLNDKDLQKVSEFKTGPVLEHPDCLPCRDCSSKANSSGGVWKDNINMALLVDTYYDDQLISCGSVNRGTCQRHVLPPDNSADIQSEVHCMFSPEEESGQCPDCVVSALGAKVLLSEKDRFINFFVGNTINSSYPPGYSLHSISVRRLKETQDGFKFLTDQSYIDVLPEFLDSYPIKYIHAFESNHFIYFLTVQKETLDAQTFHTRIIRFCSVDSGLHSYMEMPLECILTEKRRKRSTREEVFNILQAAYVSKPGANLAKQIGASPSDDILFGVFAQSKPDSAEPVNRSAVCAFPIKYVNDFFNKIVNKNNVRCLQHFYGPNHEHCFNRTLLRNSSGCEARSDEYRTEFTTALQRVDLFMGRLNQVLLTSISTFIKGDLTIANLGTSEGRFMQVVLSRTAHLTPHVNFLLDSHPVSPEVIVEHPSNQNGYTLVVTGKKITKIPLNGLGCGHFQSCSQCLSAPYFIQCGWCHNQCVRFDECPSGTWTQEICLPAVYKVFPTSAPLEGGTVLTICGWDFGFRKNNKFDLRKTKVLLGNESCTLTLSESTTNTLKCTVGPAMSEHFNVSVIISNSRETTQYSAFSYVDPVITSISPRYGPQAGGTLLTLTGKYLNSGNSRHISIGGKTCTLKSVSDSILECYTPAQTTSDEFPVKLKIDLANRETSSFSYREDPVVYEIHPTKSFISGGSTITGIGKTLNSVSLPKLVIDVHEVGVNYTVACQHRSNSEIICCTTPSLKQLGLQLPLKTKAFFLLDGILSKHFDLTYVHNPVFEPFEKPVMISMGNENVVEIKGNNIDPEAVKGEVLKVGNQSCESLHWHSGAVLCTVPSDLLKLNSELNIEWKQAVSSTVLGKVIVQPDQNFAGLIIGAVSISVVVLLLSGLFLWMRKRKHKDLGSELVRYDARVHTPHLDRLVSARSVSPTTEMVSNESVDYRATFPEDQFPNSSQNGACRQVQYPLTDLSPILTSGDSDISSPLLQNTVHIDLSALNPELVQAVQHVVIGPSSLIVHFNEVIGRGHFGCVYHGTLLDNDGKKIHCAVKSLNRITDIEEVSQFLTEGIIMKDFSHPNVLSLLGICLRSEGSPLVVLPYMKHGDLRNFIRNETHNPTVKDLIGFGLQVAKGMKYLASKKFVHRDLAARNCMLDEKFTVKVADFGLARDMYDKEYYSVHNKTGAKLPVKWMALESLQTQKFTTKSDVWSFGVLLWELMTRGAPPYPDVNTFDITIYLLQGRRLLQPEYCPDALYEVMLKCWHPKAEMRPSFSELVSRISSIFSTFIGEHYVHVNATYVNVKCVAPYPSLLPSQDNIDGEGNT

B1: JNJ-61186372 (bispecific antibody, human IgG1, kappa)
heavy 1: not shown
light 1: not shown
heavy 2: not shown
light 2: DIQMTQSPSSVSASVGDRVTITCRASQGISNWLAWFQHKPGKAPKLLIYAASSLLSGVPSRFSGSGSGTDFTLTISSLQPEDFATYYCQQANSFPITFGQGTRLEIKRTVAAPSVFIFPPSDEQLKSGTASVVCLLNNFYPREAKVQWKVDNALQSGNSQESVTEQDSKDSTYSLSSTLTLSKADYEKHKVYACEVTHQGLSSPVTKSFNRGEC
notes: also called CNTO4424
B1: no binding [1]; no binding [2].
